# Source: publication PMC10397247
# Columns and labels:
# [1] = target: T1, 4H2931-bA; assay: two-hybrid library CCNG1;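 further: natural log of median RNA to DNA barcode read ratio; higher means stronger binding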
# T1 chain: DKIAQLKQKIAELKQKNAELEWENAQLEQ
# [2] = target: T2, 4H3041-bA; assay: two-hybrid library CCNG1;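 further: natural log of median RNA to DNA barcode read ratio; higher means stronger binding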
# T2 chain: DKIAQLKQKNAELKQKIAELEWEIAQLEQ
# [3] = target: T3, 4H3297-bA; assay: two-hybrid library CCNG1;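 further: natural log of median RNA to DNA barcode read ratio; higher means stronger binding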
# T3 chain: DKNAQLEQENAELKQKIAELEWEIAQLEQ
# [4] = target: T4, 4H3364-bA; assay: two-hybrid library CCNG1;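 further: natural log of median RNA to DNA barcode read ratio; higher means stronger binding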
# T4 chain: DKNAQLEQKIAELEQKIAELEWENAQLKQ
# [5] = target: T5, 4H3381-bA; assay: two-hybrid library CCNG1
# T5 chain: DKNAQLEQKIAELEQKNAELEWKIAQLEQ
# [6] = target: T6, 4H3381-bH; assay: two-hybrid library CCNG1
# T6 chain: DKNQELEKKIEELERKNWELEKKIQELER
# [7] = target: T7, 4H349-bA; assay: two-hybrid library CCNG1
# T7 chain: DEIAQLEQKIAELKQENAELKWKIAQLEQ
# [8] = target: T8, 4H3497-bA; assay: two-hybrid library CCNG1
# T8 chain: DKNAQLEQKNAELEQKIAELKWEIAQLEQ
# [9] = target: T9, 4H56-bA; assay: two-hybrid library CCNG1
# T9 chain: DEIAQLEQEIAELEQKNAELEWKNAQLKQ
# [10] = target: T10, 4H730-bA; assay: two-hybrid library CCNG1
# T10 chain: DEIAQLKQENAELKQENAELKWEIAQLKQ
# [11] = target: T11, 4H796-bA; assay: two-hybrid library CCNG1
# T11 chain: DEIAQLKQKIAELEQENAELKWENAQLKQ
# [12] = target: T12, 4H932-bA; assay: two-hybrid library CCNG1
# T12 chain: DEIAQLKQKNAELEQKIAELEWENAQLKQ
# [13] = target: T13, 4H949-bA; assay: two-hybrid library CCNG1
# T13 chain: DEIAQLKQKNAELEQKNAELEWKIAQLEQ
# [14] = target: T14, P11A; assay: two-hybrid library CCNG1
# T14 chain: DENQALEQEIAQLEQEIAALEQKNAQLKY
# [15] = target: T15, 4H1109-AA; assay: two-hybrid library CCmax
# T15 chain: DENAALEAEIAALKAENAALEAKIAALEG
# [16] = target: T16, 4H1146-AA; assay: two-hybrid library CCmax; conditions: mean of both orientations
# T16 chain: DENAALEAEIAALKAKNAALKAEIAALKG
# [17] = target: T17, 4H1348-AA; assay: two-hybrid library CCmax; conditions: mean of both orientations
# T17 chain: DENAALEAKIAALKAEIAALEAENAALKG
# [18] = target: T18, 4H1391-AA; assay: two-hybrid library CCmax; conditions: mean of both orientations
# T18 chain: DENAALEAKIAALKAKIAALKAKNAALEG
# [19] = target: T19, 4H146-AA; assay: two-hybrid library CCmax; conditions: mean of both orientations
# T19 chain: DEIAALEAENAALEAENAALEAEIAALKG
# [20] = target: T20, 4H1809-AA; assay: two-hybrid library CCmax; conditions: mean of both orientations
# T20 chain: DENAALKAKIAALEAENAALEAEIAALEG
# [21] = target: T21, 4H1854-AA; assay: two-hybrid library CCmax; conditions: mean of both orientations
# T21 chain: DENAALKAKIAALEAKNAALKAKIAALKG
# [22] = target: T22, 4H189-AA; assay: two-hybrid library CCmax; conditions: mean of both orientations
# T22 chain: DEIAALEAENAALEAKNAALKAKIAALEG
# [23] = target: T23, 4H2248-AA; assay: two-hybrid library CCmax; conditions: mean of both orientations
# T23 chain: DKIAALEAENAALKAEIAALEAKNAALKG
# [24] = target: T24, 4H2283-AA; assay: two-hybrid library CCmax; conditions: mean of both orientations
# T24 chain: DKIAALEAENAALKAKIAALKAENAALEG
# [25] = target: T25, 4H2713-AA; assay: two-hybrid library CCmax; conditions: mean of both orientations
# T25 chain: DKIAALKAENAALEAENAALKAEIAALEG
# [26] = target: T26, 4H2742-AA; assay: two-hybrid library CCmax; conditions: mean of both orientations
# T26 chain: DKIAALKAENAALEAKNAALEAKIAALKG
# [27] = target: T27, 4H2948-AA; assay: two-hybrid library CCmax; conditions: mean of both orientations
# T27 chain: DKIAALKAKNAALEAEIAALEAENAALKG
# [28] = target: T28, 4H2991-AA; assay: two-hybrid library CCmax; conditions: mean of both orientations
# T28 chain: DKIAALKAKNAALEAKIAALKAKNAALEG
# [29] = target: T29, 4H3029-AA; assay: two-hybrid library CCmax; conditions: mean of both orientations
# T29 chain: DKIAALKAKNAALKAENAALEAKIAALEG
# [30] = target: T30, 4H3066-AA; assay: two-hybrid library CCmax; conditions: mean of both orientations
# T30 chain: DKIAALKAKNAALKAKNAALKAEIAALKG
# [31] = target: T31, 4H3102-AA; assay: two-hybrid library CCmax; conditions: mean of both orientations
# T31 chain: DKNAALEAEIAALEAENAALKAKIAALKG
# [32] = target: T32, 4H3121-AA; assay: two-hybrid library CCmax; conditions: mean of both orientations
# T32 chain: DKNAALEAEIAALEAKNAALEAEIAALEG
# [33] = target: T33, 4H3417-AA; assay: two-hybrid library CCmax; conditions: mean of both orientations
# T33 chain: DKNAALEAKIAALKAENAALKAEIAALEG
# [34] = target: T34, 4H3446-AA; assay: two-hybrid library CCmax; conditions: mean of both orientations
# T34 chain: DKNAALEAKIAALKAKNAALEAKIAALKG
# [35] = target: T35, 4H3591-AA; assay: two-hybrid library CCmax
# T35 chain: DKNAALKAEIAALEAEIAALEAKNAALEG
# [36] = target: T36, 4H3628-AA; assay: two-hybrid library CCmax; conditions: mean of both orientations
# T36 chain: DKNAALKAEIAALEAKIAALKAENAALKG
# [37] = target: T37, 4H3666-AA; assay: two-hybrid library CCmax; conditions: mean of both orientations
# T37 chain: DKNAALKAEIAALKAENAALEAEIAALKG
# [38] = target: T38, 4H3709-AA; assay: two-hybrid library CCmax; conditions: mean of both orientations
# T38 chain: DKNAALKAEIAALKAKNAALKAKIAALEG
# [39] = target: T39, 4H391-AA; assay: two-hybrid library CCmax; conditions: mean of both orientations
# T39 chain: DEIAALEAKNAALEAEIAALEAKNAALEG
# [40] = target: T40, 4H3920-AA; assay: two-hybrid library CCmax; conditions: mean of both orientations
# T40 chain: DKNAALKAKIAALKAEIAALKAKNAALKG
# [41] = target: T41, 4H3939-AA; assay: two-hybrid library CCmax; conditions: mean of both orientations
# T41 chain: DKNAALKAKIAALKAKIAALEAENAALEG
# [42] = target: T42, 4H428-AA; assay: two-hybrid library CCmax; conditions: mean of both orientations
# T42 chain: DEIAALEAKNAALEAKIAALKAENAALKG
# [43] = target: T43, 4H478-AA; assay: two-hybrid library CCmax; conditions: mean of both orientations
# T43 chain: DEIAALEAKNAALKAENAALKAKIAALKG
# [44] = target: T44, 4H497-AA; assay: two-hybrid library CCmax; conditions: mean of both orientations
# T44 chain: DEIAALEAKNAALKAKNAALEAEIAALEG
# [45] = target: T45, 4H656-AA; assay: two-hybrid library CCmax; conditions: mean of both orientations
# T45 chain: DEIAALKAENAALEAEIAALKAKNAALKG
# [46] = target: T46, 4H675-AA; assay: two-hybrid library CCmax; conditions: mean of both orientations
# T46 chain: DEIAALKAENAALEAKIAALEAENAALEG
# [47] = target: T47, 4H971-AA; assay: two-hybrid library CCmax; conditions: mean of both orientations
# T47 chain: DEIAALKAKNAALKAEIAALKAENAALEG
# [48] = target: T48, O12; assay: two-hybrid library CC0; conditions: mean of both orientations
# T48 chain: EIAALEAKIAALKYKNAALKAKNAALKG
# [49] = target: T49, O13; assay: two-hybrid library CC0; conditions: mean of both orientations
# T49 chain: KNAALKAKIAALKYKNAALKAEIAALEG
# [50] = target: T50, O14; assay: two-hybrid library CC0; conditions: mean of both orientations
# T50 chain: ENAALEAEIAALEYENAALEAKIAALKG
# [51] = target: T51, O15; assay: two-hybrid library CC0; conditions: mean of both orientations
# T51 chain: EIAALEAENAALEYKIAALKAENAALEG
# [52] = target: T52, O16; assay: two-hybrid library CC0; conditions: mean of both orientations
# T52 chain: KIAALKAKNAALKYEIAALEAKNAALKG
# [53] = target: T53, O2; assay: two-hybrid library CC0; conditions: mean of both orientations
# T53 chain: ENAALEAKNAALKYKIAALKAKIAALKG
# [54] = target: T54, O3; assay: two-hybrid library CC0; conditions: mean of both orientations
# T54 chain: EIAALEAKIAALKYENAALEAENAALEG
# [55] = target: T55, O4; assay: two-hybrid library CC0; conditions: mean of both orientations
# T55 chain: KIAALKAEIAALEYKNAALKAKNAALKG
# [56] = target: T56, O5; assay: two-hybrid library CC0; conditions: mean of both orientations
# T56 chain: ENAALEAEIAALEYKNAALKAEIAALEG
# [57] = target: T57, O6; assay: two-hybrid library CC0; conditions: mean of both orientations
# T57 chain: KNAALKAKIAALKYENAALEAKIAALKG
# [58] = target: T58, O7; assay: two-hybrid library CC0; conditions: mean of both orientations
# T58 chain: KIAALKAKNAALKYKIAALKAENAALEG
# [59] = target: T59, O8; assay: two-hybrid library CC0; conditions: mean of both orientations
# T59 chain: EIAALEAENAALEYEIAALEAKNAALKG
# [60] = target: T60, O9; assay: two-hybrid library CC0; conditions: mean of both orientations
# T60 chain: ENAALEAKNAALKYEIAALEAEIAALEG
# [61] = target: T61, P3mS; assay: two-hybrid library CCNG1
# T61 chain: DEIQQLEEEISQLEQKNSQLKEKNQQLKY
# [62] = target: T62, P5mS; assay: two-hybrid library CCNG1
# T62 chain: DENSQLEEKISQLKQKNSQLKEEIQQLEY
# [63] = target: T63, P6mS; assay: two-hybrid library CCNG1
# T63 chain: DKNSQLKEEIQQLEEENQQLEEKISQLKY
# [64] = target: T64, P7mS; assay: two-hybrid library CCNG1
# T64 chain: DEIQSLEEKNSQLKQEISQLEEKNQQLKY
# [65] = target: T65, P8mS; assay: two-hybrid library CCNG1
# T65 chain: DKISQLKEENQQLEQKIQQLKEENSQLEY
# [66] = target: T66, P9mS; assay: two-hybrid library CCNG1
# T66 chain: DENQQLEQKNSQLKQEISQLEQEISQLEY
binder,measurement,setting,value
DKIAQLKQKIAELKQKNAELEWENAQLEQ [4H2931-bA],interaction score,[1],-0.604
same,interaction score,[2],-0.32
same,interaction score,[3],-0.644
same,interaction score,[4],-1.11
same,interaction score,[5],-1.36
same,interaction score,[6],-0.208
same,interaction score,[7],-1.08
same,interaction score,[8],-1.04
same,interaction score,[9],0.684
same,interaction score,[10],-1.14
same,interaction score,[11],-0.693
same,interaction score,[12],-1.36
same,interaction score,[13],-1.37
same,interaction score,[14],1.31
DENAALEAEIAALKAENAALEAKIAALEG [4H1109-AA],interaction score,[15],0.484
same,interaction score,[16],1.4
same,interaction score,[17],-1.31
same,interaction score,[18],-1.71
same,interaction score,[19],-1.63
same,interaction score,[20],-1.32
same,interaction score,[21],1.5
same,interaction score,[22],-0.821
same,interaction score,[23],-0.482
same,interaction score,[24],-0.782
same,interaction score,[25],-1.49
same,interaction score,[26],-1.33
same,interaction score,[27],-1.16
same,interaction score,[28],-0.637
same,interaction score,[29],-0.926
same,interaction score,[30],-0.41
same,interaction score,[31],1.35
same,interaction score,[32],-0.8
same,interaction score,[33],0.592
same,interaction score,[34],-0.106
same,interaction score,[35],-1.05
same,interaction score,[36],-1.06
same,interaction score,[37],0.67
same,interaction score,[38],2.13
same,interaction score,[39],-1.46
same,interaction score,[40],-1.35
same,interaction score,[41],-1.76
same,interaction score,[42],-1.21
same,interaction score,[43],-1.55
same,interaction score,[44],-1.77
same,interaction score,[45],-1.33
same,interaction score,[46],-0.943
same,interaction score,[47],0.0745
EIAALEAKIAALKYKNAALKAKNAALKG [O12],interaction score,[48],-2.79
same,interaction score,[49],-2.79
same,interaction score,[50],-2.03
same,interaction score,[51],-2.78
same,interaction score,[52],-2.78
same,interaction score,[53],-2.79
same,interaction score,[54],0.0458
same,interaction score,[55],-2.22
same,interaction score,[56],-2.71
same,interaction score,[57],-2.7
same,interaction score,[58],-2.84
same,interaction score,[59],-2.29
same,interaction score,[60],-2.71
DEIQQLEEEISQLEQKNSQLKEKNQQLKY [P3mS],interaction score,[61],-1.02
same,interaction score,[62],-0.969
same,interaction score,[63],-0.88
same,interaction score,[64],-1.59
same,interaction score,[65],-1.66
same,interaction score,[66],-0.496
